Assay results published in publication PMC10415612.
Read-outs that look alike come from different tables or passages of the source.

Key:
[1] = target: bacterial proteasome activator (Bpa), fluorescein-labelled (M. tuberculosis) (UniProt P9WKX3); assay: MST
[2] = target: bacterial proteasome activator (Bpa), fluorescein-labelled (M. tuberculosis) (UniProt P9WKX3)
[3] = target: bacterial proteasome activator (Bpa), labelled with RED-NHS second generation dye (M. tuberculosis) (UniProt P9WKX3); assay: MST; temperature-related fluorescence intensity changes (T-jump model) on a Monolith NT.115; 250 nM Bpa-RED protomer titrated with serial dilutions of peptides 1-7; buffer M (50 mM HEPES-KOH pH 7.5, 150 mM NaCl, 5 mM MgCl2, 5% glycerol, 0.1% pluronic 127, 2% DMSO); 25°C; qualitative screen, then peptide 1 in triplicates
[4] = target: bacterial proteasome activator (Bpa), fluorescein-labelled (M. tuberculosis) (UniProt P9WKX3); assay: MST; remark: listed apart in the source

Row | Substance | Kd [1] | Bpa-mediated proteasomal degradation by 20S CP WT, SDS-PAGE time course, 37°C (unlabelled Bpa) (% degraded after 2 h) [2] | Kd [3] | Kd [4] | Bpa-mediated proteasomal degradation by 20S CP WT, SDS-PAGE time course, 37°C (unlabelled Bpa) (min to degradation) [2]
1 | HspR H24A (natural protein) | 12.1 µM | 90 |  |  | 
2 | HspR peptide 1 (residues 16-30) |  |  | 330 µM |  | 
3 | HspRΔC9, C-terminal truncation variant of HspR (domain or fragment) |  |  |  | 3.62 µM | 
4 | heat shock repressor HspR, wild type (natural protein) | 3.56 µM |  |  | 5.6 µM | < 5
